Substrate: OCCc1ccc(O)cc1
Assay: purified protein
Assay type: biochemical, Rhodiola crenulata
Conditions: UDP-glucose co-substrate (2 mM), tyrosol varied 0.5-5 mM, 50 mM Tris-HCl, pH 8.6, 30°C, 30 min

B1: RcUGT1 (Rhodiola crenulata) (protein)
chain: MDSDSRPLRVFFFPFMAHGHLIPMVDIARLFSSQGVHSTIITTPLNANYISKTTSLSIKTLPFQASKVGLPDGCENVDMLPSPDLIFKFFQAANLLQKPFENLLELEKPDCLISDIFFPWSVDSAGKFNIPRLVFHGTSFFAMCAMESLKTHKPYKSVSTDSEPFVIPNLPDEIKMTKSQFTVDAWEDTEKGVGKLLADARASGLRSFGVVVNSFYELEPAYADYYKNVLNMKAWCVGPVSVCYRNDEEKIARGKKSAIDDHECLKWLEGKQPDSVVYVCFGSGASFPDEQLRDIALGLEDSGVNFIWVIRRSSESGSEDYLPEGFEDRVEGSGLVIRGWAPQVLILDHPSVGGFVTHCGWNSALEGISAGLPMVTWPLFAEQFFNQKLITDVLKIGVEVGVQKWSRNGEDRVTKEKVEKAVRAVMVGEVAEERRGRARQLGKLAKNAAAKDGSSFIDLHNLLDELKLRRVPLS
notes: 6xHis tag (pQE30), E. coli M15, Ni-NTA purified; primers encode ends MDSDSRP...RRVPLS
- Km: 972.75 ± 104.31 µM
- Vmax: 0.0172 µmol/min/mg
- kcat: 0.0155 ± 0.00044 s⁻¹
